Paper PMC3852661, “Structural basis of SUFU–GLI interaction in human Hedgehog signalling regulation” (Acta Crystallographica Section D: Biological Crystallography, 2013)

Key:
trypsin = assay: Limited proteolysis with trypsin; assay type: physicochemical; details: 100 mM ammonium bicarbonate, 23°C
Description: SUFU32–484 cloned in pLJMBP6c was expressed in E. coli and purified as described above. The purified protein was digested with trypsin (Sigma–Aldrich) in 100 mM ammonium bicarbonate at 23°C. The protease was inactivated by adding 10 mM PMSF and sample-loading buffer followed by heating at 95°C for 5 min. Protein bands were separated by SDS–PAGE and visualized by Coomassie Blue staining. Proteolytic peptide fragments were identified by N-terminal sequencing (Alphalyse A/S) as well as MALDI–TOF and MALDI–TOF/TOF mass-spectrometric analyses (Ultraflex II and Autoflex III, Bruker Daltonics).

[1] = Thermal stability of MBP-SUFU constructs; assay type: physicochemical; details: SYPRO Orange, 2.2 µM protein, no peptide, 50 mM Na HEPES pH 7.0, 50 mM NaCl, 5 mM β-mercaptoethanol; heated 20 to 90°C; triplicate
Description: Recombinant MBP-SUFU proteins were diluted to 2.6 µM in 50 mM Na HEPES pH 7.0, 50 mM NaCl, 5 mM β-mercaptoethanol; the peptides GLI1p and GLI1p-SH (Supplementary Table S1b), synthesized by Dr W. Mawby (University of Bristol), were dissolved in the same buffer. Proteins were spun at 14 000g for 20 min at 4°C before adding SYPRO Orange (Molecular Probes) to a final concentration of 6×. Reaction volumes of 25 µl were prepared in 96-well PCR plates with 2.2 µM protein/SYPRO Orange solution and, where applicable, 44 µM peptide. Plates were sealed with optical tape, heated from 20 to 90°C in 12 s 0.2°C steps in an iCycler and fluorescence was detected using an excitation wavelength of 470 nm and an emission wavelength of 570 nm.
To determine whether the IDR affects the GLI-binding properties of SUFU, we used a human GLI1-derived peptide (GLI1p; residues 115–131; Supplementary Table S1b) containing the highly conserved SYGH motif important for interaction with SUFU (Dunaeva et al., 2003[▶]) in a thermal stability assay with MBP-SUFU-FL and MBP-SUFU-Δ (Fig. 4 ▶ a). The addition of GLI1p stabilized both proteins: T m for MBP-SUFU-FL was shifted by 4°C and that for MBP-SUFU-Δ was shifted by 3.6°C. […] The GLI1 dose dependency of this effect was confirmed in a separate experiment with increasing GLI1p concentrations (Supplementary Fig. S7a).

GLI1 [2] = assay: GLI1-induced reporter gene activity in HEK 293 cells; assay type: cell-based; details: transient transfection, HEK 293, 12GLI-RE-TKO-luc luciferase reporter, 48 h
Excerpt: (§1) SUFU variants with mutated IDR regions, the SUFU-Δ, SUFU-SH, SUFU-SH2 and SUFU-IDRfly constructs, were generated by replacing amino acids 279–360 of N-terminally Myc-tagged full-length SUFU in pcDNA3.1 (Invitrogen) with corresponding sequences synthesized at GenScript USA Inc. (Supplementary Table S1a). HEK 293 cells were transfected with a mixture of GLI1-FLAG or Myc-GLI2 (Roessler et al., 2005[▶]; a kind gift from Erich Roessler) and Myc-SUFU constructs together with 12GLI-RE-TKO-luc luciferase reporter (Kogerman et al., 1999[▶]) and pRL-SV40 (Promega) internal control using Fugene 6 or X-tremeGENE 9 (Roche) transfection reagent. Expression assays were carried out for 48 h, followed by luciferase activity measurements using a Dual Luciferase Activity Assay Kit (Promega). To verify the expression levels of transfected SUFU and GLI constructs, aliquots of cell lysates were separated by SDS–PAGE and subjected to immunoblot analysis as above. The densities of the visualized protein bands were quantified using the ImageJ 1.47v image-analysis and image-processing software (Schneider et al., 2012[▶]).

[3] = test system: Hh pathway, Sufu −/− MEFs; assay: Constitutive Hh pathway activity in Sufu −/− MEFs; assay type: cell-based, mouse; details: Gli-BS luciferase reporter
Description: Sufu ^−/− mouse embryonic fibroblast (MEF) cells (Svärd et al., 2006[▶]) were transfected with a mixture of p8x3′Gli-BS LucII or p8x3′Gli-mBS LucII reporter constructs (Sasaki et al., 1997[▶]; generous gifts from Hiroshi Sasaki) together with pRL-SV40 (Promega) internal control using Lipofectamine LTX with Plus reagent (Invitrogen) according to the manufacturer’s instructions. Following transfection, Sufu ^−/− MEF cells were grown until the culture reached confluency (24–48 h) and the cells were then switched to low-serum medium (0.5% FBS) with 100–200 nM SAG (kindly provided by Jan Bergman, Karolinska Institutet), 10 µM purmorphamine (Calbiochem) or Shh conditioned medium (1:4) and grown for an additional 48–72 h. Cell lysis and luciferase activity measurements were performed using a Dual Luciferase Activity Assay Kit (Promega). For statistical evaluation of reporter gene assays, a one-tailed paired Student’s t-test was used. All activity measurements were performed at least three times in independent experiments.

GLI2 = assay: GLI2-induced reporter gene activity in HEK 293 cells; assay type: cell-based; details: transient transfection, HEK 293, 12GLI-RE-TKO-luc luciferase reporter, 48 h
Excerpt: as §1

GLI1 [4] = assay: Co-immunoprecipitation with GLI1; assay type: binding; details: Cos-7 cell lysates, GLI1-FLAG and Myc-SUFU; four independent experiments
Description: Cos-7 cells were transfected separately with C-terminally FLAG-tagged GLI1 in pCMV5 (Andersson et al., 1989[▶]) and N-terminally Myc-tagged SUFU in pCMV-Script (Stratagene) using Fugene 6 (Roche). 24 h after transfection, the cells were lysed with 50 mM Tris–HCl pH 7.4, 150 mM NaCl, 1% NP-40, 0.25% sodium deoxycholate, 1 mM N-ethylmaleimide (Fluka), 1 mM dithiothreitol and cOmplete Mini protease inhibitors (Roche). Normalized lysates were combined and pre-incubated for 6 h. Co-immunoprecipitation was performed for 16 h using agarose-conjugated anti-FLAG M2 (Sigma–Aldrich) and anti-Myc 9b11 (Cell Signaling) antibodies. The beads were washed three times with 500 µl lysis buffer and the bound protein was eluted by boiling the beads in SDS–PAGE sample buffer and analyzed by Western blotting. Samples were separated by SDS–PAGE, transferred to polyvinylidene fluoride Immobilon-P membranes (Millipore) and probed using anti-Myc 71D10 (Cell Signaling) or anti-Myc 9E10 (Santa Cruz) antibodies and anti-DYKDDDDK tag antibody (Cell Signaling). Similar results were obtained in four independent experiments.

[5] = R123C germline mutation; ref Aavikko et al., 2012; cited from earlier work
Excerpt: SUFU is a tumour suppressor protein that is found to be inactivated most frequently (up to 50%) by germline mutations in children below the age of three presenting with medulloblastoma of the desmoplastic/nodular subtype (Slade et al., 2011[▶]; Brugières et al., 2012[▶]), whereas a somatic mutation frequency of about 10% has been reported for sporadic medulloblastomas of the desmoplastic subtype (Taylor et al., 2002[▶]). Moreover, germline or somatic mutations in the SUFU gene have recently been described in association with meningioma and chondrosarcoma (Aavikko et al., 2012[▶]; Kijima et al. ...

B1: MBP-SUFU-FL: MBP fusion containing residues 32–483 of human SUFU and a C-terminal hexahistidine tag (protein)
chain: PGLHAIYGECRRLYPDQPNPLQVTAIVKYWLGGPDPLDYVSMYRNVGSPSANIPEHWHYISFGLSDLYGDNRVHEFTGTDGPSGFGFELTFRLKRETGESAPPTWPAELMQGLARYVFQSENTFCSGDHVSWHSPLDNSESRIQHMLLTEDPQMQPVQTPFGVVTFLQIVGVCTEELHSAQQWNGQGILELLRTVPIAGGPWLITDMRRGETIFEIDPHLQERVDKGIETDGSNLSGVSAKCAWDDLSRPPEDDEDSRSICIGTQPRRLSGKDTEQIRETLRRGLEINSKPVLPPINPQRQNGLAHDRAPSRKDSLESDSSTAIIPHELIRTRQLESVHLKFNQESGALIPLCLRGRLLHGRHFTYKSITGDMAITFVSTGVEGAFATEEHPYAAHGPWLQILLTEEFVEKMLEDLEDLTSPEEFKLPKEYSWPEKKLKVSILPDVVFDSPL
modifications: left off: MBP, N-terminal, kept | His6, C-terminal, state not stated
notes: MBP fusion containing residues 32–483 of human SUFU and a C-terminal hexahistidine tag
protease-hypersensitive sites (trypsin): Several protease-hypersensitive sites were found clustered within residues 299–363
Tm [1]: 50.1 °C

B2: SUFU-FL: full-length SUFU, N-terminally Myc-tagged (protein)
chain: MAELRPSGAPGPTAPPAPGPTAPPAFASLFPPGLHAIYGECRRLYPDQPNPLQVTAIVKYWLGGPDPLDYVSMYRNVGSPSANIPEHWHYISFGLSDLYGDNRVHEFTGTDGPSGFGFELTFRLKRETGESAPPTWPAELMQGLARYVFQSENTFCSGDHVSWHSPLDNSESRIQHMLLTEDPQMQPVQTPFGVVTFLQIVGVCTEELHSAQQWNGQGILELLRTVPIAGGPWLITDMRRGETIFEIDPHLQERVDKGIETDGSNLSGVSAKCAWDDLSRPPEDDEDSRSICIGTQPRRLSGKDTEQIRETLRRGLEINSKPVLPPINPQRQNGLAHDRAPSRKDSLESDSSTAIIPHELIRTRQLESVHLKFNQESGALIPLCLRGRLLHGRHFTYKSITGDMAITFVSTGVEGAFATEEHPYAAHGPWLQILLTEEFVEKMLEDLEDLTSPEEFKLPKEYSWPEKKLKVSILPDVVFDSPLH
modifications: left off: Myc, N-terminal, kept
notes: full-length SUFU, N-terminally Myc-tagged
repression of transcriptional activity induced by GLI1 (GLI1 [2]): efficiently repressed
suppression of constitutive Hh pathway activity [3]: suppress constitutive pathway activity in Sufu ^−/− cells (c) with similar efficiency
repression of transcriptional activity induced by GLI2 (GLI2): efficiently repressed
GLI1 binding in Co-IP (GLI1 [4]): no remarkable difference in GLI1 binding

B3: R123C: SUFU R123C mutation segregated with tumour development in a family predisposed to meningiomas (protein, UniProt Q9UMX1 1-484, looked up, variant R123C)
Suppressor of fused homolog: MAELRPSGAPGPTAPPAPGPTAPPAFASLFPPGLHAIYGECRRLYPDQPNPLQVTAIVKYWLGGPDPLDYVSMYRNVGSPSANIPEHWHYISFGLSDLYGDNRVHEFTGTDGPSGFGFELTFCLKRETGESAPPTWPAELMQGLARYVFQSENTFCSGDHVSWHSPLDNSESRIQHMLLTEDPQMQPVQTPFGVVTFLQIVGVCTEELHSAQQWNGQGILELLRTVPIAGGPWLITDMRRGETIFEIDPHLQERVDKGIETDGSNLSGVSAKCAWDDLSRPPEDDEDSRSICIGTQPRRLSGKDTEQIRETLRRGLEINSKPVLPPINPQRQNGLAHDRAPSRKDSLESDSSTAIIPHELIRTRQLESVHLKFNQESGALIPLCLRGRLLHGRHFTYKSITGDMAITFVSTGVEGAFATEEHPYAAHGPWLQILLTEEFVEKMLEDLEDLTSPEEFKLPKEYSWPEKKLKVSILPDVVFDSPLH
inhibitory activity in cellular assays [5]: reduced inhibitory activity

B4: MBP-SUFU-Δ: MBP-SUFU with amino acids 279–360 replaced by the heptamer sequence PSRGEDP (protein)
chain: PGLHAIYGECRRLYPDQPNPLQVTAIVKYWLGGPDPLDYVSMYRNVGSPSANIPEHWHYISFGLSDLYGDNRVHEFTGTDGPSGFGFELTFRLKRETGESAPPTWPAELMQGLARYVFQSENTFCSGDHVSWHSPLDNSESRIQHMLLTEDPQMQPVQTPFGVVTFLQIVGVCTEELHSAQQWNGQGILELLRTVPIAGGPWLITDMRRGETIFEIDPHLQERVDKGIETDGSNLSGVSAKCAWDDLPSRGEDPIRTRQLESVHLKFNQESGALIPLCLRGRLLHGRHFTYKSITGDMAITFVSTGVEGAFATEEHPYAAHGPWLQILLTEEFVEKMLEDLEDLTSPEEFKLPKEYSWPEKKLKVSILPDVVFDSPL
modifications: left off: MBP, N-terminal, kept | His6, C-terminal, state not stated
Tm [1]: 46.6 °C
